Source: patent US7947807B2, “Method for obtaining G protein-coupled receptor (GPCR) diffraction-quality crystals employing a monoclonal antibody that binds to the third intracellular loop (IL3)” (The Board of Trustees of the Leland Stanford Junior …, priority 2007, dated 2011)
“Also recorded” adds a separate entry of the source. Like-named read-outs stand apart in the source and are kept apart here.

B1: antibody 5: mouse monoclonal antibody binding a three dimensional epitope on the third intracellular loop of β2AR (protein)
light: DIKMTQSPSSMYASLGERVTITCKASQDINSYLSWFQQKPGKSPKTLIYRANRLVDGVPSRFIGTGSGQDYSLTISSLDYEDMGIYYCLQYDEFPYTFGGGTKLEIKRADAAPTVSIFPPSSEQLTSGGASVVCFLNNFYPKDINVKWKIDGSERQNGVLNSWTDQDSKDSTYSMSSTLTLTKDEYERHNSYTCEATHKTSTSPIVKSFNRNEC
heavy: EVQLQQSGAELARPGASVKLSCKASGYIFTDYYINWVRQRTGQGFEWIGEIYPGSGNIDYNERFKDKATLTADKSSSTAYMQLSSLTSEDSAVYFCVRGFGYWGQGTTLTVSSAKTTPPSVYPLAPGSAAQTNSMVTLGCLVKGYFPEPVTVTWNSGSLSSGVHTFPAVLQSDLYTLSSSVTVPSSTWPSETVTCNVAHPASSTKVDKKIVPRDCGC
B2: Fab 5: Fab fragment of antibody 5 generated by papain cleavage; light chain SEQ ID NO: 1, heavy chain SEQ ID NO: 2 (antibody)
heavy: B1 heavy
light: B1 light
modifications: mus musculis; UNSURE (0)...(0) Fab 5 Heavy chain; UNSURE (0)...(0) Fab5 light chain

What was measured:
β2AR [1] = molecular target: T1, β2AR (Homo sapiens, UniProt P07550); experiment: Saturation and competition binding assays on purified β2AR reconstituted in phospholipid vesicles, with and without prebound Fab 5; conditions: saturation binding, read-out: [3H]dihydroalprenolol Kd ± S.E.
T1 construct: hexahistidine (C); made in house; host or cells: Sf9 insect cells
Description: The effect of Fab binding on ligand binding properties and on agonist-induced three dimensional changes was determined.

[2] = molecular target: T2, flag tagged β2AR stably expressed in HEK-293 cells (Homo sapiens, UniProt P07550); experiment: Immunofluorescence staining of HEK-293 cells stably expressing flag tagged β2AR, nonpermeabilized or permeabilized; format: cell-based; conditions: compared with M1 antibody
T2 construct: expressed in transfected cells
Description: HEK-293 cells stably expressing a flag tagged version of the β2AR were cultured on coverslips and processed for immunocytochemistry. After fixation, with 4% paraformaldehyde, the cells were washed and blocked with 2.5% goat serum in PBS alone (nonpermeabilized) or with 0.5% NP-40 in PBS (permeabilized). The cells were incubated with the β2AR specific antibody indicated on the left side of the figure. After several washes, the β2AR monoclonal antibodies were detected with a Texas Red conjugated anti-mouse secondary antibody. […] The images shown are representative of at least 3 experiments. All images were acquired using an Axioplan 2 microscope (Carl Zeiss MicroImaging), fitted with a camera (RTE/CCD-1300-Y/HS; Roper Scientific) controlled using IPLab software (BD Bioscience).
The antibodies were characterized as binding the intracellular or extracellular surface of the receptor in immunofluorescence experiments with HEK-293 cells stably expressing an N-terminally FLAG-tagged version of the β2AR. Antibodies that recognize an intracellular epitope only stain permeabilized cells.

β2AR-TMR = molecular target: T3, β2AR-TMR (Homo sapiens, UniProt P07550); experiment: Fluorescence of β2AR labeled at C265 with tetramethylrhodamine (β2AR-TMR), antibody dose-response; format: biochemical
T3 construct: made in house
Description: FIGS. 2A and 2B. Binding characteristics of β2AR-specific antibodies. 2A, Dot-blots showing binding of nine β2AR specific antibodies to denatured receptor. Equal amounts of β2AR denatured with SDS and β-mercaptoethanol were spotted in triplicate on nitrocellulose strips. The strips were blocked with 5% non-fat dry milk in PBS-Tween (0.05% Tween-20) and then probed with […] of the indicated antibodies diluted in blocking buffer. Binding of the primary antibody to the denatured β2AR was detected with an Alexa-688 labeled anti-mouse secondary antibody. The top panel is a graphical representation of the average dot intensity from three independent experiments. The lower panel is a representative experiment. […] 2B, Dose-response curves showing the effect on increasing amounts of antibodies 4-9 on the fluorescence of β2AR labeled at C265 with tetramethylrhodamine (β2AR-TMR). β2AR-TMR was diluted to 4 nM in 500 μL of buffer consisting of 0.1% dodecylmaltoside, 100 mM sodium chloride, and 20 mM HEPES buffer (pH 7.5). […]
To select for antibodies that may interact with IC3, we examined the effect of antibody binding on the fluorescence of β2AR labeled at C265 (at the cytoplasmic end of TM6) with tetramethylrhodamine. […] As such, antibodies binding to IC3 may stabilize a specific conformation of TM5 relative to TM6 that would be detected by a change in tetramethylrhodamine fluorescence.

denatured β2AR = molecular target: T4, denatured β2AR (Homo sapiens, UniProt P07550); experiment: Dot-blot binding of antibodies to SDS-denatured β2AR; conditions: β2AR denatured with SDS, spotted on nitrocellulose
T4 construct: hexahistidine (C); made in house; host or cells: Sf9 insect cells
Description: FIGS. 2A and 2B. Binding characteristics of β2AR-specific antibodies. 2A, Dot-blots showing binding of nine β2AR specific antibodies to denatured receptor. Equal amounts of β2AR denatured with SDS and β-mercaptoethanol were spotted in triplicate on nitrocellulose strips. The strips were blocked with 5% non-fat dry milk in PBS-Tween (0.05% Tween-20) and then probed with […] of the indicated antibodies diluted in blocking buffer. Binding of the primary antibody to the denatured β2AR was detected with an Alexa-688 labeled anti-mouse secondary antibody. The top panel is a graphical representation of the average dot intensity from three independent experiments. The lower panel is a representative experiment. The binding of all 9 antibodies to denatured β2AR is reduced compared to M1 binding to the linear Flag epitope. 2B, Dose-response curves showing the effect on increasing amounts of antibodies 4-9 on the fluorescence of β2AR labeled at C265 with tetramethylrhodamine (β2AR-TMR). β2AR-TMR was diluted to 4 nM in 500 μL of buffer consisting of 0.1% dodecylmaltoside, 100 mM sodium chloride, and 20 mM HEPES buffer (pH 7.5). Data represent an n of 3.
Antibodies were screened for binding to a three dimensional epitope on the three-dimensional surface on the IC3 of the native β2AR, rather than a flexible linear epitope. […]

β2AR [3] = molecular target: T5, β2AR (Homo sapiens, UniProt P07550, A271C/I135W); experiment: Bimane fluorescence assay of agonist-induced conformational change (β2AR labeled with monobromobimane at H271C); format: biochemical; conditions: 1 μM Fab5, 100 μM isoproterenol, 15 minutes
T5 construct: made in house
From the text: (§1) FIGS. 3A and 3B. […] The fragmented β2AR was visualized using an Alexa-680 labeled M1 antibody against the N-terminal Flag epitope. […] The loop is marked with MW indicators corresponding to N-terminal fragments containing the Flag epitope. Residues sensitive to trypsin digest are shown in red. 3B, The change in the bimane fluorescence of β2AR labeled with monobromobimane at H271C at the cytoplasmic end of TM6. Bimane fluorescence is quenched by W135 at the cytoplasmic end of TM3 upon agonist binding^9. […] Fluorescence intensity was corrected for background fluorescence from buffer and ligands in all experiments. The data are the mean±S.E. of two independent experiments performed in triplicate.
Purified receptor was reacted with 1:1 equivalent of monobromobimane (mBBr, Invitrogen) in buffer A (100 mM NaCl, 20 mM HEPES, pH 7.5, 0.1% dodecyl maltoside) and incubated overnight on ice in the dark. The fluorophore-labeled receptor was purified right before use by gel filtration on a desalting column equilibrated with buffer B. Fluorescence spectroscopy experiments were performed on a Spex FluoroMax-3 spectrofluorometer (Jobin Yvon Inc, NJ) with photon counting mode by using an excitation and emission bandpass of 4 nm. All experiments were performed at 25° C. For emission scans, excitation was set at 370 nm and emission was measured from 430-530 nm with an integration time of 1 s/nm. […]

β2AR [4] = molecular target: T1, β2AR; experiment: Coupling of purified β2AR to purified G protein; format: biochemical; conditions: data not shown
β2AR [5] = molecular target: T1, β2AR; experiment: Limited tryptic digestion of purified β2AR with and without Fab 5, Western blot; format: biochemical; conditions: preincubated with Fab 5; M1 anti-FLAG Western blot
From the text: as §1
Cleavage of purified β2AR with trypsin yielded two bands with molecular weights of approximately 27 and 29 kDa on a Western blot probed with the M1 anti-FLAG antibody (FIG. 3A). The sizes of these fragments indicate trypsin digestion at two of ten potential sites in IC3 (FIG. 3A).

Row | Molecule | Kd (β2AR [1]; β2AR without prebound Fab 5) | Kd (β2AR [1]; β2AR-Fab5 (prebound Fab 5)) | immunostaining on binding to native receptor in fixed cells [2] | affinity for the β2AR (in words) (β2AR-TMR; from β2AR-TMR dose-response curves, FIG. 2B) | fluorescence response of β2AR-TMR (β2AR-TMR; β2AR labeled at C265 with tetramethylrhodamine) | binding to denatured β2AR (denatured β2AR) | effect on agonist-induced bimane fluorescence change (β2AR [3]) | coupling of purified β2AR to purified G protein (β2AR [4]) | protection of IC3 from trypsin cleavage (β2AR [5])
1 | CCCc1ccccc1OCC(O)CNC(C)C (stereo not shown) [[^3H]dihydroalprenolol] | 1.02 ± 0.09 nM | 1.08 ± 0.05 nM |  |  |  |  |  |  | 
2 | B1 |  |  | comparable to M1 | highest affinity; also recorded: relatively high affinity | largest fluorescence response; also recorded: significantly greater than the response to antibody 9 | weakest binding to denatured protein; also recorded: bound weakly | not affected |  | 
3 | B2 |  |  |  |  |  |  | did not restrict the movement of transmembrane segments | prevented coupling | the 27 kDa band disappears; also recorded: protects the N-terminal end of the loop
